Assay results reported in article PMC11602165, “A bacterial transcription activator dedicated to the expression of the enzyme catalyzing the first committed step in fatty acid biosynthesis” (Nucleic Acids Research, 2024).
Where “and” joins values, the source holds several entries; their conditions need not be identical. Equal entries are not always repeated. Each block holds one molecule with its values, some of them ahead of it.

Key:
[1] = target: AccR (LysR-type transcriptional regulator, SO_0839) (Shewanella oneidensis, UniProt Q8EIK0); test: ITC in HEPES buffer (Kd […]); also MST ([…]); no binding seen by ITC in Tris buffer
[2] = target: the molecule itself; test: crystal structure; AccR EBD (residues 86-303), apo form, hanging-drop vapor diffusion, 27.5% PEG 4000, 100 mM HEPES pH 7.0, 20°C; space group C2, one dimer in the asymmetric unit
[3] = target: the molecule itself; test: SEC; His-tagged recombinant AccR purified from E. coli run on a Superdex 200HR 10/30 column (FPLC); two peaks with estimated molecular weights of ~67 and ~140 kDa

Kd [1]: 8.4 ± 1.3 µM
Molecule: CC(=O)SCCNC(=O)CCNC(=O)[C@H](O)C(C)(C)COP(=O)(O)OP(=O)(O)OC[C@H]1O[C@@H](n2cnc3c(N)ncnc32)[C@H](O)[C@@H]1OP(=O)(O)O [acetyl-CoA]

B1: AccR effector-binding domain (EBD, residues 86-303) (domain or fragment, Shewanella oneidensis, UniProt Q8EIK0 86-303, looked up)
chain: THDDVSGSLRIAIPVSFSQELIANLCSGFMRLYPNVELDVQFTDNDIGLVGEGYDIAIKYGPLQSSDLVARLLFERQPILVASPGYLKTRGTPATPKELSDHSGILLGTSRSAPIWPLGKGTRKTMVSFQRKVRVNSPIMVKQLALDDFGIAMLSNSACKTELANGQLVPILQEWPMEPFKVYGVYSSRRQLATNISAFLDFFVKRFSSQESLQSLMG
notes: the model holds residues 89-302 (subunit A) and 90-300 (subunit B); The methods describe expression in M9 medium with selenomethionine, but also say that diffraction data were collected with native protein crystals; also called AccR EBD; regulatory domain; source: E. coli BL21(DE3), pET-28a, purified (Ni-NTA, size-exclusion chromatography)
binding result [2]: binds

B2: AccR (SO_0839), LysR-type transcriptional regulator, His6-tagged recombinant (natural protein, Shewanella oneidensis, UniProt Q8EIK0 1-303, looked up)
chain: MPDLNGMMLFAAVVRAKGFSQAARETGHPKSTISRKIAQLEEELGVRLLQRDTRNLSLTQVGALFYQHCDSIRNEVEAAKAVIESTHDDVSGSLRIAIPVSFSQELIANLCSGFMRLYPNVELDVQFTDNDIGLVGEGYDIAIKYGPLQSSDLVARLLFERQPILVASPGYLKTRGTPATPKELSDHSGILLGTSRSAPIWPLGKGTRKTMVSFQRKVRVNSPIMVKQLALDDFGIAMLSNSACKTELANGQLVPILQEWPMEPFKVYGVYSSRRQLATNISAFLDFFVKRFSSQESLQSLMG
notes: AccR (SO_0839), LTTR of 303 amino acids, Shewanella oneidensis; full-length; calculated molecular weight of the recombinant protein 35.6 kDa; The methods describe growth of the BL21(DE3) cells in M9 medium supplemented with selenomethionine; also called ACCase regulator; His-tagged AccR; source: E. coli BL21(DE3), pET-28a, purified (Ni-NTA, size-exclusion chromatography); not shown: His6, …
stoichiometry N [3]: 2 and 4
